Results on six molecules are retold here after publication PMC6753139, “TRIM66 reads unmodified H3R2K4 and H3K56ac to respond to DNA damage in embryonic stem cells” (Nature Communications, 2019).

For test [1], the system named is ESCs. As to the kind of experiment: survival with DNA repair inhibitors (HR, NHEJ). The class given is cell-based, mouse. The following applies: TRIM66-depleted ESCs under EPI treatment with HR or NHEJ inhibitor. An excerpt:
reagent (Fig. S9b, c). We further performed the competitive survival experiment through co-culturing the GFP-labeled wild-type ESCs and TRIM66 KO ESCs under EPI treatment, and our […]
was indeed required for ESC to survive DNA damage (Fig. S9d). […]
localization of γ-H2AX foci and HR repair related proteins (Rad51 and CtIP) or NHEJ repair related protein (DNA-PKcs) in ESCs (Fig. 5f, 5g, S11d, and S11e). We further applied two specific inhibitors (YU238259 and NU7441) to block HR and NHEJ repair respectively (Stachelek et al., […]
affect both HR and NHEJ repair pathways in ESCs (Fig. S11f). To better clarify the mechanisms of TRIM66 involved in the regulation of DNA damage, w e performed the immunofluorescence assay […]
to bind at DNA damage sites (Fig. S11a). […] We also analyzed the relevance of […]
depletion of TRIM66 disrupted the negative correlation of H3K56ac and γ-H2AX (Fig. 5d). In view of the recognition of TRIM66 and H3K56ac (Fig.2 and Fig. S10), we speculated that the loose winding of nucleosomal DNA nearby the DNA damage sites might expose H3K56ac to its reader TRIM66, while TRIM66 deficiency impeded the erasure of H3K56ac at DNA damage sites and the recruitment of DNA repair proteins. […]

The target in test [2] is TRIM66-WT_(965-1160) (PHD-Bromodomain) (human) (UniProt O15016). As to the kind of experiment: ITC; MicroCal PEAQ-ITC, 25 °C, 20 mM Tris, 100 mM NaCl, pH 7.5; 0.7-4 mM peptide injected into the cell with 0.12 mM TRIM24-PHD-Bromo, 0.05 mM TRIM33 PHD-Bromo, or 0.05 or 0.11-[…] TRIM66-PHD-Bromo (or its mutants); single measurement, errors from the fitting curve. In general terms: In ITC the heat of successive injections is recorded.

Test [3] addresses TRIM66-GSGS_(968-1160) (PHD-Bromodomain) (human) (UniProt O15016). The description is as above.
Test [4] deals with TRIM66-WT_(965-1160) (human) (UniProt O15016). As to the kind of experiment: ITC; 0.7–4 mM peptide injected into a cell with 0.05 or 0.11–[…] TRIM66-PHD-Bromo (or its mutants), 0.12 mM TRIM24-PHD-Bromo or 0.05 mM TRIM33 PHD-Bromo; 25 °C; 20 mM Tris, 100 mM NaCl, pH 7.5; MicroCal PEAQ-ITC; single measurement.
Test [5] deals with ESCs. As to the kind of experiment: survival analysis of ESCs treated with DNA-damaging agents. The class given is cell-based, mouse. Particulars: TRIM66-depleted ESCs. As to the method:
Furthermore, we performed competitive survival experiment through mixing the equal amount of TRIM66-KO ESCs and green fluorescent protein (GFP)-labeled WT ESCs (WT-GFP), then co-cultured for 5 days under EPI treatment.
For the culture of ESCs, the medium was changed every day and the cells were passaged every 2 days. The 293T cells were cultured in DMEM containing 10% fetal bovine serum. […]
a, The expression level of DNA damage related genes (Cdkn1a, Gadd45a, and p53) in WT and TRIM66 KO ESCs […]
assay c in WT and TRIM66 KO ESCs treated with EPI. e, Clonal competition assay of WT and TRIM66 KO ESCs treated with EPI in different days (day 1, 3, and 5). Representative images show the mixtures of WT-GFP and […] clones. Scale bar, 10 μm.* represents a difference from WT ESCs or GFP-negative ESC clones at day 1, # indicates a difference from GFP-positive ESC clones at day 1. Statistical significance is determined by two-tailed
(1 picture or pasted object on this page, not shown here)

In test [6] the target is TRIM66-MUT_(968-1160) (PHD-Bromodomain) (human) (UniProt O15016). As to the kind of experiment: ITC; MicroCal PEAQ-ITC, 25 °C, 20 mM Tris, 100 mM NaCl, pH 7.5; 0.7-4 mM peptide injected into the cell with 0.12 mM TRIM24-PHD-Bromo, 0.05 mM TRIM33 PHD-Bromo, or 0.05 or 0.11-[…] TRIM66-PHD-Bromo (or its mutants); single measurement, errors from the fitting curve.
Test [7] deals with T1, TRIM66_(965-1160) E968A (human, UniProt O15016 965-1160, E968A). The description is as above.
Test [8] concerns the target T2, TRIM66_(965-1160) N969A (human, UniProt O15016 965-1160, N969A). The description is as above.
Test [9] addresses T3, TRIM24_(824-1006) (PHD-Bromodomain) (human, UniProt O15164 824-1006).
T3 construct: TRIM24 PHD-Bromodomain, Homo sapiens, residues 824-1006 of UniProt O15164 (Isoform long); also called TRIM24-PHD-Bromo; source: E. coli BL21 (DE3), purified (Ni column, SUMO protease, second Ni column, Superdex 75)
T3 sequence (looked up): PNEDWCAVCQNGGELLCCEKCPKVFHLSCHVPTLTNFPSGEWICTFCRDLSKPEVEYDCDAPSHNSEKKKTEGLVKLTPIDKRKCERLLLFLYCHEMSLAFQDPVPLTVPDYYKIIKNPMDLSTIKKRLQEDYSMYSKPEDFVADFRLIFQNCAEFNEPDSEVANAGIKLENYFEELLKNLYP
As to the kind of experiment: ITC; MicroCal PEAQ-ITC, 25 °C, 20 mM Tris, 100 mM NaCl, pH 7.5; 0.7-4 mM peptide injected into the cell with 0.12 mM TRIM24-PHD-Bromo, 0.05 mM TRIM33 PHD-Bromo, or 0.05 or 0.11-0.15 mM TRIM66-PHD-Bromo (or its mutants); single measurement, errors from the fitting curve. Particulars: both partners purified.

Test [10] concerns the target T4, TRIM33_(882-1087) (PHD-Bromodomain) (human, UniProt Q9UPN9 882-1087).
T4 construct: also called TRIM33 PHD-Bromo; source: E. coli BL21 (DE3), purified (Ni column, SUMO protease, second Ni column, Superdex 75)
T4 sequence (looked up): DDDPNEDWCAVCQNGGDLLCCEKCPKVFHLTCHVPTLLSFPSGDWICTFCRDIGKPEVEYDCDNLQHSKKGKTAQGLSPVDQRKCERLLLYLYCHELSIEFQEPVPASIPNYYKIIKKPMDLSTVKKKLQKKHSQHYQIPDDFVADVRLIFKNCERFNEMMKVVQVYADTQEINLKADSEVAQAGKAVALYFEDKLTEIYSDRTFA
The description is as above. The following applies: both partners purified.

Test [11] addresses T5, TRIM24_(824-1006) (human, UniProt O15164 824-1006).
T5 construct: TRIM24, human, PHD-Bromodomain, residues 824-1006, amplified from a human bone marrow cDNA library, in pET-SUMO-28a (+); also called TRIM24-PHD-Bromo; TRIM24 PHD-Bromodomain; source: E. coli BL21 (DE3), purified (Ni-chelating column, SUMO protease, second nickel column, Superdex 75)
T5 sequence (looked up): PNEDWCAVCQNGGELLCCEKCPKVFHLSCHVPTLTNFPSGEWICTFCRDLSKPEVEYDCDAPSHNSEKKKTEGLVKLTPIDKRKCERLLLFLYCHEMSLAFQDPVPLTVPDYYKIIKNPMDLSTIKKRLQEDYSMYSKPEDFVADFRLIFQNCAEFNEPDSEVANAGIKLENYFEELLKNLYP
As to the kind of experiment: ITC; 0.7–4 mM peptide injected into a cell with 0.05 or 0.11–0.15 mM TRIM66-PHD-Bromo (or its mutants), 0.12 mM TRIM24-PHD-Bromo or 0.05 mM TRIM33 PHD-Bromo; 25 °C; 20 mM Tris, 100 mM NaCl, pH 7.5; MicroCal PEAQ-ITC; single measurement. The following applies: both partners purified.

Test [12] addresses T6, TRIM33_(882-1087) (human, UniProt Q9UPN9 882-1087).
T6 construct: also called TRIM33 PHD-Bromo; TRIM33 PHD-Bromodomain; source: E. coli BL21 (DE3), purified (Ni-chelating column, SUMO protease, second nickel column, Superdex 75)
T6 sequence (looked up): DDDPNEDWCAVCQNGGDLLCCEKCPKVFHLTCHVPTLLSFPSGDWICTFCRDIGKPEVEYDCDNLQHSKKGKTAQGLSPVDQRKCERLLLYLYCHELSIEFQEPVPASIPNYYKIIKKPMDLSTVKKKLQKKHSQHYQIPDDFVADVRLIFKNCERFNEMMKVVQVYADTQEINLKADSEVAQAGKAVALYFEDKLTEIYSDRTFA
Described as above. The following applies: both partners purified.

Test [13] deals with T1, TRIM66_(965-1160) E968A. As to the kind of experiment: ITC.
Target sequence in this assay (O15016 1100-1295 E1103A): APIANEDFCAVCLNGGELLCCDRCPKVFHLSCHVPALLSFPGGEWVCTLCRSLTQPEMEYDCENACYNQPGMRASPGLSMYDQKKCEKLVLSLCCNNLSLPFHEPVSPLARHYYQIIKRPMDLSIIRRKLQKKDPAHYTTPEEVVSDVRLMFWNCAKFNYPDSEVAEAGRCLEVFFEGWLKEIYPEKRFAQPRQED
Test [14] concerns the target T2, TRIM66_(965-1160) N969A. As to the kind of experiment: ITC.
Target sequence in this assay (O15016 1100-1295 N1104A): as the sequence (O15016 1100-1295 E1103A) above, with A4E, N5A counted along it

What is called stoichiometry N is a count of units in the complex or per binding partner. Broadly, the Kd is the free concentration of one partner at which half of the binding sites on the other are occupied at equilibrium, for simple one-to-one binding. A lower Kd goes with a tighter complex.

`O=c1cc(N2CCOCC2)oc2c(-c3cccc4c3sc3ccccc34)cccc12` [NU7441]: the “survival rate of TRIM66-depleted ESCs (in words)” value in test [1] was “significant decrease in the survival rate”.
Consider “H3_(48-57)K56ac peptide (from UniProt P68431 49-58)”, for which the stoichiometry N in test [2] is 1.07; in [3], 1.23. In addition, the Kd in [3] stood at 127 µM; in [4], 109 µM.
Consider YU238259, for which the “survival rate of TRIM66-depleted ESCs (in words)” value in test [1] was “significant decrease in the survival rate”.
bleomycin: the results for the “survival of TRIM66-KO versus WT ESCs (in words)” value in test [5] and in [5] (listed as bleomycin) were “significantly impaired” and “significantly reduced the survival rates”, respectively.

B1: H3_(1-12) peptide (peptide, UniProt P68431 2-13, looked up)
peptide: ARTKQTARKSTG
notes: histone H3.1, Homo sapiens, residues 1-12; also called unH3_(1-12); unmodified H3_(1-12); source: synthetic peptide (GL Biochem)
For the molecule B1, the stoichiometry N in [2] worked out at 0.96; in test [6], 1.12; in [7], 1.04; in [8], 0.84; in test [9] it was 0.92; in [10], 1.06. Also, the results for the Kd in [7] and in [8] were 34.8 µM and 72.6 µM, respectively.

B2: H3_(1-12) peptide, unmodified (peptide, UniProt P68431 2-13, looked up)
peptide: ARTKQTARKSTG
notes: histone H3, residues 1-12, unmodified; also called unH3_(1-12); unmodified H3_(1-12); source: synthetic peptide (GL Biochem, Shanghai)
Consider B2, for which the Kd in test [11] was determined as 51.4 µM; in [12] it was 3.39 µM; in test [13], 34.8 µM; in test [14], 72.6 µM.
